Patent publication US20250313627A1 (FUSE BIOTHERAPEUTICS, published 2025)

Columns and labels:
[1] = target: T1, cynomolgus (NHP) CD3 on cynomolgus pan-T cells (cynomolgus); assay: flow cytometry on cynomolgus pan-T cells
T1 construct: whole, on cells; also called cynomolgus CD3
Description: (§1) The CD3-specific Fab binding arm is presumed responsible for the observed binding. A Hen Egg Lysozyme (HEL)-specific antibody was used as the negative isotype control. Binding was measured via flow cytometry at various concentrations of test articles using a fluorescently labeled secondary antibody specific for the Fc domain of IgG1. The apparent affinity calculated for each test subject based on the data is shown under each graph. […] Binding to mouse CD3 was not tested because the anti-CD3 clone, 1F3-3, incorporated into the TCE is a humanized variant of clone SP34, which was derived in mouse and is well described as not binding mouse CD3.
(§2) Adherent target cells were collected by brief TrypLE treatment while suspension cells were directly collected. Collected cells were washed once with PBS by centrifugation at 500×g for 5 minutes at room temperature and added to V-bottom 96-well plate (200,000-300,000 cells per well). To prepared Live/Dead fixable red, one vial of powder was dissolved into 50 uL of DMSO to make stock solution and then diluted 1 uL of stock Live/Dead fixable red in 1 mL of PBS to prepare the working solution. 100 uL of Live/Dead fixable red working buffer was then added to the cell in the V-bottom 96-well plate (200,000-300,000 cells per well) and incubated for 15 minutes at room temperature. […] The samples were then analyzed on Cytek flow cytometer.

[2] = target: T2, mouse ROR1 on mouse 4T1 cells (mouse, UniProt Q9Z139 30-937); assay: flow cytometry on 4T1 cells expressing mouse ROR1
T2 construct: whole, on cells
T2 sequence (Q9Z139 30-937): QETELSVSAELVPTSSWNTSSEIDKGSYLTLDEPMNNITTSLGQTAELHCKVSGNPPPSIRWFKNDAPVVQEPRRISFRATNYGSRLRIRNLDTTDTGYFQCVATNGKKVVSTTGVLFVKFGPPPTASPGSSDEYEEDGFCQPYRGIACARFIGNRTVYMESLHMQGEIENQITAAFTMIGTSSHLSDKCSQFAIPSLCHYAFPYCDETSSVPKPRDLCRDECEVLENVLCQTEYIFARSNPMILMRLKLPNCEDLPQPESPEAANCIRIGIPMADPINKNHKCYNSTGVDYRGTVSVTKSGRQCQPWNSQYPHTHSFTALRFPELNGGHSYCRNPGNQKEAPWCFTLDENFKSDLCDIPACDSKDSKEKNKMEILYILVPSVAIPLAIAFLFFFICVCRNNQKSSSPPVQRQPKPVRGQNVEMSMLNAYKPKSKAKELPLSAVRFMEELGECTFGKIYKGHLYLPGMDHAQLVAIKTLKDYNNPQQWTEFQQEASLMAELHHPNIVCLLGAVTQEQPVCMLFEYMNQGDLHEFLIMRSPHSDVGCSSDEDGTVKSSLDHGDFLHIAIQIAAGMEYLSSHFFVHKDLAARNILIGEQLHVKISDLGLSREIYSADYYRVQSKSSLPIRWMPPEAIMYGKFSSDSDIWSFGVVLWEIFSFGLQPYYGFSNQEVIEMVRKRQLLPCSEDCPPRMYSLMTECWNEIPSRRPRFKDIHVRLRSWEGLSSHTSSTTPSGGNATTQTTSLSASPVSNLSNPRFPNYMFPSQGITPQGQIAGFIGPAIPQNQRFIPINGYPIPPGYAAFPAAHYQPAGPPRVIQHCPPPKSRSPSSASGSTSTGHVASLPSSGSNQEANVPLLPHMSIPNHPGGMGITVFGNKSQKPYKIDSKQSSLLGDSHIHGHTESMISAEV

[3] = target: T3, human ROR1 (Receptor Tyrosine Kinase-Like Orphan Receptor 1) on the cell surface (human, UniProt Q01973 30-937); assay: flow cytometry on MDA-MB-231 variants, low ROR1 density; low cell surface density of ROR1
T3 construct: whole, on cells; engineered into B16-F10 (high density) and LS174T (low density) cells; also called B16-F10-ROR1-H; LS174T-ROR1-L
T3 sequence (Q01973 30-937): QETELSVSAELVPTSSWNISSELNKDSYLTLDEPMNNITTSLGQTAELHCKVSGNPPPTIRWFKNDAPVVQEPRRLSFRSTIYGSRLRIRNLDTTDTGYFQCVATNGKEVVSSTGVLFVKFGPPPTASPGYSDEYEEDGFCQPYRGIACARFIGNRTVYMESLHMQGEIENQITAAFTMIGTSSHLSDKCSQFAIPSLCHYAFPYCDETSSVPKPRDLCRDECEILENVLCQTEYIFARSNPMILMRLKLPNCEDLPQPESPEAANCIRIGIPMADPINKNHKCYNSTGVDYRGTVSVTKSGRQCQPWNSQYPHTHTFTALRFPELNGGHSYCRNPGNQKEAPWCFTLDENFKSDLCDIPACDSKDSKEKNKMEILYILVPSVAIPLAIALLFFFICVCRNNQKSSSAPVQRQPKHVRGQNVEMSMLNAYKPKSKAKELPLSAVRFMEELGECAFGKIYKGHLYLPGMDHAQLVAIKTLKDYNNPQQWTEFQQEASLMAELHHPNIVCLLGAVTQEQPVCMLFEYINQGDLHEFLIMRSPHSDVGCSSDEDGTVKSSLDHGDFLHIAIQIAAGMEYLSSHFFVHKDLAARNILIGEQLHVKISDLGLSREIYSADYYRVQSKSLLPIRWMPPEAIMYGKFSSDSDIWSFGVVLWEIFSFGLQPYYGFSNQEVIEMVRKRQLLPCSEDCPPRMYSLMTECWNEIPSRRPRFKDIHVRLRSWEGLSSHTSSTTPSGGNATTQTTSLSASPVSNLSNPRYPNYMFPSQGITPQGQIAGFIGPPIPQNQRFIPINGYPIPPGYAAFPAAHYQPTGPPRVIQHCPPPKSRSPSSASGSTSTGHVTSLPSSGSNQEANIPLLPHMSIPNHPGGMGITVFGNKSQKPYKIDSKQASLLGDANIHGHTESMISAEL
Description: (§3) Binding of 2A11 (black line), 5A1 (dark grey line) and VHH8 (medium grey line) were tested in TCE format 12A. The commercial ROR1 specific Ab reported to bind the ROR1-Ig domain 2A2 (light grey line), served as the positive control and anti-HEL (dotted black line) served as the negative control. To better visualize binding of each test article to the three cells lines, we plotted MFI on the y-axis for each test article for HEK-293 cells (negative control; FIG. 4I), HEK-293 cells transfected with full length human ROR1 (FIG. 4J) and HEK-293 cells transfected with the ROR1 Ig domain linked to the cell surface via the GPI linker from CD59 (FIG. 4K).
as §2

[4] = target: T4, recombinant His tagged human ROR1 (human, UniProt Q01973 30-403, limits assumed); assay: BLI (Octet), FUSE protein loaded on the biosensor, His tagged ROR1 in solution
T4 construct: Analyte in the BLI assay; also called Human ROR1-His; recombinant ROR1
T4 sequence (Q01973 30-403 limits assumed): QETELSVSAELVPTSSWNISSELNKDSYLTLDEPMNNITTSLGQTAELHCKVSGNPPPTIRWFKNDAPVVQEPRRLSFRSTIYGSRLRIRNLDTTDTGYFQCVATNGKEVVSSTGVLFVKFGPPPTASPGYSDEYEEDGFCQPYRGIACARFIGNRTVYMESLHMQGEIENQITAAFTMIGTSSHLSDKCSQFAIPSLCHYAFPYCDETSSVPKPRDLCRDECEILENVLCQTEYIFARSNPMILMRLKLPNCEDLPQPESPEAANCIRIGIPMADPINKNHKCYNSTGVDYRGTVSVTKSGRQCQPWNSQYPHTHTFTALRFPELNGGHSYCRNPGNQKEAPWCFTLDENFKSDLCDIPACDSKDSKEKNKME
Description: (§4) As shown in FIGS. 5A-5D, the binding affinities (KD) of TCEs for ROR1 were assessed. We examined the magnitude by which several TCEs and mutants thereof bind to recombinant ROR1. Kinetic binding graphs were generated via Bio-Layer Interferometry (BLI) using an Octet system. For each TCE, the biosensor tips were coated with FUSE proteins at 15 μg/ml and probed with either recombinant His tagged ROR1 at concentrations ranging from 100 pM to 10 μM. […] The binding affinity (KD), on rate (k-on) and off rate (k-dis), are summarized for ROR1 in FIG. 5D.
(§5) Antibodies were prepared in 1×PBS with 0.02% Tween-20 with the final concentration of 15 ug/ml. Human ROR1-His or CD3e-His protein were also prepared, and serial diluted (4-fold dilution ranging from 400 nM to 0.098 nM) in 1×PBS with 0.02% Tween-20. The biosensors were pre-moistened in 200 uL of 1×PBS with 0.02% Tween-20 for 10 minutes. Meanwhile, Octet BLI system (ForteBio) was prewarmed for 30 minutes and the flow rate was set to 1000 rpm. The biosensors (Anti-hIgG Fc Capture biosensor) were soaked in 250 uL of 1×PBS with 0.02% Tween-20 for 60 seconds at 30° C. to get an initial baseline reading. After the 60-second baseline reading, the biosensors were exposed to testing antibody for 300 seconds at 30° C. for the association between antibody and the biosensors (coupling antibody with biosensor). The biosensors with antibody were then exposed to human ROR1 or CD3e in 250 uL of 1×PBS with 0.02% Tween-20 at 30° C. for 300 seconds for the association reaction between antibody and human ROR1 or CD3e (association curve). After 300-second association reaction between antibody and antigen, the biosensors with antibody and antigen were then exposed to 250 uL of 1×PBS with 0.02% Tween-20 at 30° C. for 300 seconds for the dissociation reaction between antibody and […]. The binding affinity was calculated by the built-in data fitting algorithm.

[5] = target: T3, human ROR1 (Receptor Tyrosine …); assay: flow cytometry on MDA-MB-231 variants, high ROR1 density; high cell surface density of ROR1
Description: as §3, §2

[6] = target: T4, recombinant His tagged human ROR1; assay: BLI (Octet), FUSE protein loaded on the biosensor, His tagged ROR1 in solution; column 'kdis(1/s)'
Description: as §4, §5

[7] = target: T3, human ROR1 (Receptor Tyrosine …); assay: flow cytometry on MDA-MB-231 ROR1 low cells (about 17,000 ROR1 per cell), secondary antibody to the IgG1 Fc
Description: as §3
as §2, with “temperature. After the 15-minute incubation, the cells were washed twice with PBS by centrifugation at 500 g for 5 minutes at room temperature. The cells were then cultured with antibodies at different concentrations in 100 uL of Biolegend staining buffer at 4° C. for 45 minutes. After the 45-minute incubation with primary antibody, the cells were washed with PBS by centrifugation at 500 g for 5 minutes at room temperature. The cells were then cultured with PE-Cy7-conjugated mouse-anti-human IgG secondary antibody in Biolegend staining buffer at 4° C. for 45 minutes.” for “temperature.”

[8] = target: T3, human ROR1 (Receptor Tyrosine …); assay: flow cytometry on MDA-MB-231 ROR1 high cells (about 500,000 ROR1 per cell), secondary antibody to the IgG1 Fc
Description: as §3
as §2, with “temperature. After the 15-minute incubation, the cells were washed twice with PBS by centrifugation at 500 g for 5 minutes at room temperature. The cells were then cultured with antibodies at different concentrations in 100 uL of Biolegend staining buffer at 4° C. for 45 minutes. After the 45-minute incubation with primary antibody, the cells were washed with PBS by centrifugation at 500 g for 5 minutes at room temperature. The cells were then cultured with PE-Cy7-conjugated mouse-anti-human IgG secondary antibody in Biolegend staining buffer at 4° C. for 45 minutes.” for “temperature.”

human CD3 on T cells [9] = target: T5, human CD3 on T cells (human, UniProt P07766 23-207; P09693 23-182; P04234 22-171; P20963 22-164); assay: flow cytometry on Jurkat T cells, fluorescent secondary antibody to the IgG1 Fc; table row 'Binding EC50 (Kd)'
T5 construct: whole, on cells; also called human CD3 on Jurkat T cells; human CD3 on T cells isolated from human PBMC
T5 sequence (P07766 23-207, chain 1 of 4): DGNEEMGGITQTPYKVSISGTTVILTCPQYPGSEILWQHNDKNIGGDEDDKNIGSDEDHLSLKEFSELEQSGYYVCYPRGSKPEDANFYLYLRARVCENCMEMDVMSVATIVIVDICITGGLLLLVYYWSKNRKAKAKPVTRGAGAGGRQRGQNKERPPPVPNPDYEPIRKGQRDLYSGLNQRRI
T5 sequence (P09693 23-182, chain 2 of 4): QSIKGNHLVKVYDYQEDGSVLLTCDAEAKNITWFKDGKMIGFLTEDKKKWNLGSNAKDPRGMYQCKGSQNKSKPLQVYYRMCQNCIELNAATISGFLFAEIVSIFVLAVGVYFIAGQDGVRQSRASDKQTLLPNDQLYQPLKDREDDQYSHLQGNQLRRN
T5 sequence (P04234 22-171, chain 3 of 4): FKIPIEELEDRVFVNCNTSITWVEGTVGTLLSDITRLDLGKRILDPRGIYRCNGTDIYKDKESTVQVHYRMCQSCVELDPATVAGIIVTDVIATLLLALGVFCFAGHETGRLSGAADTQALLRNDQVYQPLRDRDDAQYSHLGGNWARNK
T5 sequence (P20963 22-164, chain 4 of 4): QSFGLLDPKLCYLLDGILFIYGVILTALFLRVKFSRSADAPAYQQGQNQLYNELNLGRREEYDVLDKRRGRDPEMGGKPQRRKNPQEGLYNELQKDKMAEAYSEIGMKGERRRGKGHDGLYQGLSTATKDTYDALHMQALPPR
Description: as §1, §2

[10] = target: T3, human ROR1 (Receptor Tyrosine …); assay: flow cytometry on MDA-MB-231 ROR1 normal cells (about 35,000 ROR1 per cell), secondary antibody to the IgG1 Fc
Description: as §3
as §2, with “temperature. After the 15-minute incubation, the cells were washed twice with PBS by centrifugation at 500 g for 5 minutes at room temperature. The cells were then cultured with antibodies at different concentrations in 100 uL of Biolegend staining buffer at 4° C. for 45 minutes. After the 45-minute incubation with primary antibody, the cells were washed with PBS by centrifugation at 500 g for 5 minutes at room temperature. The cells were then cultured with PE-Cy7-conjugated mouse-anti-human IgG secondary antibody in Biolegend staining buffer at 4° C. for 45 minutes.” for “temperature.”

[11] = target: T3, human ROR1 (Receptor Tyrosine …); assay: flow cytometry on MDA-MB-231 ROR1 super high cells (about 2,000,000 ROR1 per cell), secondary antibody to the IgG1 Fc
Description: as §3
as §2, with “temperature. After the 15-minute incubation, the cells were washed twice with PBS by centrifugation at 500 g for 5 minutes at room temperature. The cells were then cultured with antibodies at different concentrations in 100 uL of Biolegend staining buffer at 4° C. for 45 minutes. After the 45-minute incubation with primary antibody, the cells were washed with PBS by centrifugation at 500 g for 5 minutes at room temperature. The cells were then cultured with PE-Cy7-conjugated mouse-anti-human IgG secondary antibody in Biolegend staining buffer at 4° C. for 45 minutes.” for “temperature.”

[12] = target: T1, cynomolgus (NHP) CD3 on cynomolgus …; assay: flow cytometry on cynomolgus pan T cells, fluorescent secondary antibody to the IgG1 Fc; table row 'Binding EC50 (Kd)'
Description: as §1, §2

human CD3 on T cells [13] = target: T5, human CD3 on T cells; assay: flow cytometry on human pan T cells (T cells isolated from human PBMC), fluorescent secondary antibody to the IgG1 Fc; table row 'Binding EC50 (Kd)'
Description: as §1, §2

B1: FUSE-393 (bispecific antibody, human IgG1, lambda, L234A L235A)
chain: QVQLQESGGGSVQAGGSLKLSCTASGYTNRLKCMGWFRQAPGKEREEIATISTGTGNTYYADSVKGRFTFSQDKVKNTVYLQMNTLKPDDTGMYYCAADVRPDGTTCHYNSGGQGTQVTVSSGGGGSGGGGSGGGGSQVQLQESGGGSVQAGGSLKLSCTASGYTNRLKCMGWFRQAPGKEREEIATISTGTGNTYYADSVKGRFTFSQDKVKNTVYLQMNTLKPDDTGMYYCAADVRPDGTTCHYNSGGQGTQVTVSSEPKSSDKTHTCPPCPAPEAAGGPSVFLFPPKPKDTLMISRTPEVTCVVVDVSHEDPEVKFNWYVDGVEVHNAKTKPREEQYNSTYRVVSVLTVLHQDWLNGKEYKCKVSNKALPAPIEKTISKAKGQPREPQVYTLPPSREEMTKNQVSLSCAVKGFYPSDIAVEWESNGQPENNYKTTPPVLDSDGSFFLVSKLTVDKSRWQQGNVFSCSVMHEALHNRFTQKSLSLSPGK
heavy: EVQLVESGGGLVQPGGSLRLSCAASGFTFSTYAMNWVRQAPGKGLEWVARIRSKYNNYATYYADSVKDRFTISRDDSKNTLYLQMNSLRAEDTAVYYCARHGNFGNSYVSWFAYWGQGTMVTVSSASTKGPSVFPLAPSSKSTSGGTAALGCLVKDYFPEPVTVSWNSGALTSGVHTFPAVLQSSGLYSLSSVVTVPSSSLGTQTYICNVNHKPSNTKVDKKVEPKSCDKTHTCPPCPAPEAAGGPSVFLFPPKPKDTLMISRTPEVTCVVVDVSHEDPEVKFNWYVDGVEVHNAKTKPREEQYNSTYRVVSVLTVLHQDWLNGKEYKCKVSNKALPAPIEKTISKAKGQPREPQVYTLPPSREEMTKNQVSLWCLVKGFYPSDIAVEWESNGQPENNYKTTPPVLDSDGSFFLYSKLTVDKSRWQQGNVFSCSVMHEALHNHYTQKSLSLSPGK
light: QAVVTQEPSLTVSPGGTVTLTCRSSTGAVTTSNYANWVQQKPGQAPRGLIGGTNKRAPGTPARFSGSLLGGKAALTLSGVQPEDEAEYYCALWYSNLWVFGGGTKLTVLGQPKAAPSVTLFPPSSEELQANKATLVCLISDFYPGAVTVAWKADSSPVKAGVETTTPSKQSNNKYAASSYLSLTPEQWKSHRSYSCQVTHEGSTVEKTVAPTECS
notes: Hole chain: 5A1-linker-5A1-Fc; knob chain: anti-CD3 Fab heavy chain-Fc; anti-CD3 light chain; also called format 11A incorporating the 5A1 ROR1-specific VHH
fold difference in apparent binding affinity, cynomolgus against human CD3 [1]: < 2 fold | binding result [2]: no binding | EC50 [3]: ~300 nM | Kd [4]: 21.8 nM | kon [4]: 21500 M⁻¹ s⁻¹ | EC50 [5]: ~15 nM | koff [6]: 0.000468 s⁻¹ | EC50 [7]: 288 nM | EC50 [8]: 26.5 nM | EC50 (human CD3 on T cells [9]): 3.34 nM | EC50 [10]: 281 nM | EC50 [11]: 16.3 nM | EC50 [12]: 3.04 nM | EC50 (human CD3 on T cells [13]): 4.45 nM

B2: FUSE-394 (bispecific antibody, human IgG1, lambda, L234A L235A)
chain: QVQLQESGGGSVQAGGSLKLSCTASGYTNRLKCMGWFRQAPGKEREEIATISTGTGNTYYADSVKGRFTFSQDKVKNTVYLQMNTLKPDDTGMYYCAADVRPDGTTCHYNSGGQGTQVTVSSEPKSSDKTHTCPPCPAPEAAGGPSVFLFPPKPKDTLMISRTPEVTCVVVDVSHEDPEVKFNWYVDGVEVHNAKTKPREEQYNSTYRVVSVLTVLHQDWLNGKEYKCKVSNKALPAPIEKTISKAKGQPREPQVYTLPPSREEMTKNQVSLSCAVKGFYPSDIAVEWESNGQPENNYKTTPPVLDSDGSFFLVSKLTVDKSRWQQGNVFSCSVMHEALHNRFTQKSLSLSPGK
heavy: B1 heavy
light: QAVVTQEPSLTVSPGGTVTLTCRSSTGAVTTSNYANWVQQKPGQAPRGLIGGTNKRAPGTPARFSGSLLGGKAALTLSGVQPEDEAEYYCALWYSNLWVFGGGTKLTVLGQPKAAPSVTLFPPSSEELQANKATLVCLISDFYPGAVTVAWKADSSPVKAGVETTTPSKQSNNKYAASSYLSLTPEQWKSHRSYSCQVTHEGSTVEKTVAPTECSGGGGSGGGGSGGGGSGGGGSQVQLQESGGGSVQAGGSLKLSCTASGYTNRLKCMGWFRQAPGKEREEIATISTGTGNTYYADSVKGRFTFSQDKVKNTVYLQMNTLKPDDTGMYYCAADVRPDGTTCHYNSGGQGTQVTVSS
notes: Hole chain: 5A1-Fc; knob chain: anti-CD3 Fab heavy chain-Fc; light chain: anti-CD3 light chain-linker-5A1; also called format 13cA incorporating the 5A1 ROR1-specific VHH
fold difference in apparent binding affinity, cynomolgus against human CD3 [1]: < 2 fold | binding result [2]: no binding | EC50 [3]: ~100 nM | Kd [4]: 56.9 nM | kon [4]: 28700 M⁻¹ s⁻¹ | EC50 [5]: ~5 nM | koff [6]: 0.00163 s⁻¹ | EC50 [7]: 69.7 nM | EC50 [8]: 19.5 nM | EC50 (human CD3 on T cells [9]): 10.6 nM | EC50 [10]: 154 nM | EC50 [11]: 6.1 nM | EC50 [12]: 7.46 nM | EC50 (human CD3 on T cells [13]): 10.5 nM
